Laboratory results from publication PMC11263335.

Assays:
[1] = molecular target: shrimp hemocyanin (SHC) from Litopenaeus vannamei (Litopenaeus vannamei) (UniProt Q26180); assay: SEC; purified SHC dissolved in PBS, Superdex-200 column, size by standard proteins
[2] = molecular target: shrimp hemocyanin (SHC) from Litopenaeus vannamei (Litopenaeus vannamei) (UniProt Q26180); assay: SEC + other: transmission electron microscopy (uranyl acetate stain); purified SHC in PBS; Superdex-200 elution and particle diameters on a carbon-coated grid (FEI F20, 120 kV), compared with AlphaFold models of monomer and tetramer

percent of SHC eluting between 158 and 440 kDa [1]: 80% | stoichiometry N [2]: 4
Substance: shrimp hemocyanin (SHC) from Litopenaeus vannamei (from UniProt Q26180 1-662) (natural protein)
